Experimental data as given in article PMC9433702, “Functional characterization of a catalytically promiscuous tryptophan decarboxylase from camptothecin-producing Camptotheca acuminata” (Frontiers in Plant Science, 2022).

Substrate: N[C@@H](Cc1c[nH]c2ccccc12)C(=O)O
Assay: HPLC-DAD quantitation of tryptamine, non-linear regression
Type: biochemical, Camptotheca acuminata
Conditions: 4 μM PLP, 0.16 μM enzyme, 50 mM phosphate buffer pH 7.6, 37°C

B1: CaTDC3 (Camptotheca acuminata) (protein)
chain: MGSLDSNYDTESPASVGQFNPLDPEEFRKQAHCIVDFIADYYKNIESYPVLSQVDPGYLHSRLPKNAPYRSEPFESILKDVQKDIIPGMTHWMSPNFFAYFPATVSSAAFVGEMLCTCFNSVGFNWLASPAATELEMVVIDWLANMLKLPKSFMFSGTGGGVLQGTTSEAILCTLIAARDRALEIVGVKNFNKLVVYGSDQTHSTYAKACKLAGILPCNIRSIPTTADSNFSVSPLLLRRAIEADKAAGMVPLYICATVGTTSTTAIDPLSSLADVANDYGVWFHVDAAYAGSACICPEFRHYLDGIERADSLSLSPHKWLLSYLDCCCLWVKSPSLLVKALSTDPEYLKNQPSESKSVVDYKDWQVGTGRRFKALRLWFVMRSYGVANLQSHIRTDVQMAKMFEGFVKSDPRFEILVPRVFSLVCFRLNPISGSDPTGTEALNRKLLDWVNSTGRVYMTHTKVGGIYMLRFAVGATLTEKRHVSSAWKLIKEGADVLLKED
notes: homodimer by homology model
Km: 48 ± 2 µM
kcat: 25.6 min^–1
